T1: preproinsulin 73-90 peptide complexed with HLA-DRB1*04:01 (human, UniProt P01903 26-254; P01911 30-266)
T1 MHC II alpha: not shown
T1 MHC II beta: not shown
T1 peptide: GAGSLQPLALEGSLQKRG

B1: TCR-G (TCR)
TCR alpha: QKEVEQNSGPLSVPEGAIASLNCTYSDRGSQSFFWYRQYSGKSPELIMFIYSNGDKEDGRFTAQLNKASQYVSLLIRDSQPSDSATYLCAVIYSSASKIIFGSGTRLSIRPNIQNPDPAVYQLRDSKSSDKSVCLFTDFDSQTNVSQSKDSDVYITDKTVLDMRSMDFKSNSAVAWSNKSDFACANAFNNSIIPEDTFFPSPESSCDVKLVEKSFETDTNLNFQNLSVIGFRILLLKVAGFNLLMTLRLWSS
TCR beta: SQTIHQWPATLVQPVGSPLSLECTVEGTSNPNLYWYRQAAGRGLQLLFYSVGIGQISSEVPQNLSASRPQDRQFILSSKKLLLSDSGFYLCAWSVQRLGRGGETQYFGPGTRLLVLEDLKNVFPPEVAVFEPSEAEISHTQKATLVCLATGFYPDHVELSWWVNGKEVHSGVSTDPQPLKEQPALNDSRYCLSSRLRVSATFWQNPRNHFRCQVQFYGLSENDEWTQDRAKPVTQIVSAEAWGRADCGFTSESYQQGVLSATILYEILLGKATLYAVLVSALVLMAMVKRKDSRG
B2: TCR-G DS (TCR)
TCR alpha: QKEVEQNSGPLSVPEGAIASLNCTYSDRGSQSFFWYRQYSGKSPELIMFIYSNGDKEDGRFTAQLNKASQYVSLLIRDSQPSDSATYLCAVIYSSASKIIFGSGTRLSIRPNIQNPDPAVYQLRDSKSSDKSVCLFTDFDSQTNVSQSKDSDVYITDKCVLDMRSMDFKSNSAVAWSNKSDFACANAFNNSIIPEDTFFPSPESSCDVKLVEKSFETDTNLNFQNLSVIGFRILLLKVAGFNLLMTLRLWSS
TCR beta: SQTIHQWPATLVQPVGSPLSLECTVEGTSNPNLYWYRQAAGRGLQLLFYSVGIGQISSEVPQNLSASRPQDRQFILSSKKLLLSDSGFYLCAWSVQRLGRGGETQYFGPGTRLLVLEDLKNVFPPEVAVFEPSEAEISHTQKATLVCLATGFYPDHVELSWWVNGKEVHSGVCTDPQPLKEQPALNDSRYCLSSRLRVSATFWQNPRNHFRCQVQFYGLSENDEWTQDRAKPVTQIVSAEAWGRADCGFTSESYQQGVLSATILYEILLGKATLYAVLVSALVLMAMVKRKDSRG
B3: TCR-H (TCR)
TCR alpha: EDQVTQSPEALRLQEGESSSLNCSYTVSGLRGLFWYRQDPGKGPEFLFTLYSAGEEKEKERLKATLTKKESFLHITAPKPEDSATYLCAVQLSDSNYKLTFGKGTLLTVNPNIQNPDPAVYQLRDSKSSDKSVCLFTDFDSQTNVSQSKDSDVYITDKTVLDMRSMDFKSNSAVAWSNKSDFACANAFNNSIIPEDTFFPSPESSCDVKLVEKSFETDTNLNFQNLSVIGFRILLLKVAGFNLLMTLRLWSS
TCR beta: NAGVTQTPKFQVLKTGQSMTLQCAQDMNHNSMYWYRQDPGMGLRLIYYSASEGTTDKGEVPNGYNVSRLNKREFSLRLESAAPSQTSVYFCASRGQVNEKLFFGSGTQLSVLEDLNKVFPPEVAVFEPSEAEISHTQKATLVCLATGFFPDHVELSWWVNGKEVHSGVSTDPQPLKEQPALNDSRYCLSSRLRVSATFWQNPRNHFRCQVQFYGLSENDEWTQDRAKPVTQIVSAEAWGRADCGFTSVSYQQGVLSATILYEILLGKATLYAVLVSALVLMAMVKRKDF
B4: TCR-H DS (TCR)
TCR alpha: EDQVTQSPEALRLQEGESSSLNCSYTVSGLRGLFWYRQDPGKGPEFLFTLYSAGEEKEKERLKATLTKKESFLHITAPKPEDSATYLCAVQLSDSNYKLTFGKGTLLTVNPNIQNPDPAVYQLRDSKSSDKSVCLFTDFDSQTNVSQSKDSDVYITDKCVLDMRSMDFKSNSAVAWSNKSDFACANAFNNSIIPEDTFFPSPESSCDVKLVEKSFETDTNLNFQNLSVIGFRILLLKVAGFNLLMTLRLWSS
TCR beta: NAGVTQTPKFQVLKTGQSMTLQCAQDMNHNSMYWYRQDPGMGLRLIYYSASEGTTDKGEVPNGYNVSRLNKREFSLRLESAAPSQTSVYFCASRGQVNEKLFFGSGTQLSVLEDLNKVFPPEVAVFEPSEAEISHTQKATLVCLATGFFPDHVELSWWVNGKEVHSGVCTDPQPLKEQPALNDSRYCLSSRLRVSATFWQNPRNHFRCQVQFYGLSENDEWTQDRAKPVTQIVSAEAWGRADCGFTSVSYQQGVLSATILYEILLGKATLYAVLVSALVLMAMVKRKDF
B5: TCR-I (TCR)
TCR alpha: IDAKTTQPTSMDCAEGRAANLPCNHSTISGNEYVYWYRQIHSQGPQYIIHGLKNNETNEMASLIITEDRKSSTLILPHATLRDTAVYYCIVRFQSGGYQKVTFGTGTKLQVIPNIQNPDPAVYQLRDSKSSDKSVCLFTDFDSQTNVSQSKDSDVYITDKTVLDMRSMDFKSNSAVAWSNKSDFACANAFNNSIIPEDTFFPSPESSCDVKLVEKSFETDTNLNFQNLSVIGFRILLLKVAGFNLLMTLRLWSS
TCR beta: DAGVIQSPRHEVTEMGQEVTLRCKPISGHNSLFWYRQTMMRGLELLIYFNNNVPIDDSGMPEDRFSAKMPNASFSTLKIQPSEPRDSAVYFCASSIQAGGRYNEQFFGPGTRLTVLEDLKNVFPPEVAVFEPSEAEISHTQKATLVCLATGFYPDHVELSWWVNGKEVHSGVSTDPQPLKEQPALNDSRYCLSSRLRVSATFWQNPRNHFRCQVQFYGLSENDEWTQDRAKPVTQIVSAEAWGRADCGFTSESYQQGVLSATILYEILLGKATLYAVLVSALVLMAMVKRKDSRG
B6: TCR-I DS (TCR)
TCR alpha: IDAKTTQPTSMDCAEGRAANLPCNHSTISGNEYVYWYRQIHSQGPQYIIHGLKNNETNEMASLIITEDRKSSTLILPHATLRDTAVYYCIVRFQSGGYQKVTFGTGTKLQVIPNIQNPDPAVYQLRDSKSSDKSVCLFTDFDSQTNVSQSKDSDVYITDKCVLDMRSMDFKSNSAVAWSNKSDFACANAFNNSIIPEDTFFPSPESSCDVKLVEKSFETDTNLNFQNLSVIGFRILLLKVAGFNLLMTLRLWSS
TCR beta: DAGVIQSPRHEVTEMGQEVTLRCKPISGHNSLFWYRQTMMRGLELLIYFNNNVPIDDSGMPEDRFSAKMPNASFSTLKIQPSEPRDSAVYFCASSIQAGGRYNEQFFGPGTRLTVLEDLKNVFPPEVAVFEPSEAEISHTQKATLVCLATGFYPDHVELSWWVNGKEVHSGVCTDPQPLKEQPALNDSRYCLSSRLRVSATFWQNPRNHFRCQVQFYGLSENDEWTQDRAKPVTQIVSAEAWGRADCGFTSESYQQGVLSATILYEILLGKATLYAVLVSALVLMAMVKRKDSRG
B7: TCR-K (TCR)
TCR alpha: RGNGKNQVEQSPQSLIILEGKNCTLQCNYTVSPFSNLRWYKQDTGRGPVSLTIMTFSENTKSNGRYTATLDADTKQSSLHITASQLSDSASYICVVSASSNTGKLIFGQGTTLQVKPDIQNPDPAVYQLRDSKSSDKSVCLFTDFDSQTNVSQSKDSDVYITDKTVLDMRSMDFKSNSAVAWSNKSDFACANAFNNSIIPEDTFFPSPESSCDVKLVEKSFETDTNLNFQNLSVIGFRILLLKVAGFNLLMTLRLWSS
TCR beta: DAGVIQSPRHEVTEMGQEVTLRCKPISGHNSLFWYRQTMMRGLELLIYFNNNVPIDDSGMPEDRFSAKMPNASFSTLKIQPSEPRDSAVYFCASSGQLVAYNEQFFGPGTRLTVLEDLKNVFPPEVAVFEPSEAEISHTQKATLVCLATGFYPDHVELSWWVNGKEVHSGVSTDPQPLKEQPALNDSRYCLSSRLRVSATFWQNPRNHFRCQVQFYGLSENDEWTQDRAKPVTQIVSAEAWGRADCGFTSESYQQGVLSATILYEILLGKATLYAVLVSALVLMAMVKRKDSRG
B8: TCR-K DS (TCR)
TCR alpha: RGNGKNQVEQSPQSLIILEGKNCTLQCNYTVSPFSNLRWYKQDTGRGPVSLTIMTFSENTKSNGRYTATLDADTKQSSLHITASQLSDSASYICVVSASSNTGKLIFGQGTTLQVKPDIQNPDPAVYQLRDSKSSDKSVCLFTDFDSQTNVSQSKDSDVYITDKCVLDMRSMDFKSNSAVAWSNKSDFACANAFNNSIIPEDTFFPSPESSCDVKLVEKSFETDTNLNFQNLSVIGFRILLLKVAGFNLLMTLRLWSS
TCR beta: DAGVIQSPRHEVTEMGQEVTLRCKPISGHNSLFWYRQTMMRGLELLIYFNNNVPIDDSGMPEDRFSAKMPNASFSTLKIQPSEPRDSAVYFCASSGQLVAYNEQFFGPGTRLTVLEDLKNVFPPEVAVFEPSEAEISHTQKATLVCLATGFYPDHVELSWWVNGKEVHSGVCTDPQPLKEQPALNDSRYCLSSRLRVSATFWQNPRNHFRCQVQFYGLSENDEWTQDRAKPVTQIVSAEAWGRADCGFTSESYQQGVLSATILYEILLGKATLYAVLVSALVLMAMVKRKDSRG
B9: TCR-L (TCR, V domains shown)
V domain 1: RKEVEQDPGPFNVPEGATVAFNCTYSNSASQSFFWYRQDCRKEPKLLMSVYSSGNEDGRFTAQLNRASQYISLLIRDSKLSDSATYLCVVLRNSGNTPLVFGKGTRLSVIA
V domain 2: DAGITQSPRHKVTETGTPVTLRCHQTENHRYMYWYRQDPGHGLRLIHYSYGVKDTDKGEVSDGYSVSRSKTEDFLLTLESATSSQTSVYFCAIKPGQGNRGEQFFGPGTRLTVLE
B10: TCR-M (TCR, V domains shown)
V domain 1: DQQVKQNSPSLSVQEGRISILNCDYTNSMFDYFLWYKKYPAEGPTFLISISSIKDKNEDGRFTVFLNKSAKHLSLHIVPSQPGDSAVYFCAASAKTSGSRLTFGEGTQLTVNP
V domain 2: NAGVTQTPKFRILKIGQSMTLQCTQDMNHNYMYWYRQDPGMGLKLIYYSVGAGITDKGEVPNGYNVSRSTTEDFPLRLELAAPSQTSVYFCASRGGIQETQYFGPGTRLLVLE
B11: TCR-N (TCR, V domains shown)
V domain 1: GESVGLHLPTLSVQEGDNSIINCAYSNSASDYFIWYKQESGKGPQFIIDIRSNMDKRQGQRVTVLLNKTVKHLSLQIAATQPGDSAVYFCAEISKTSYDKVIFGPGTSLSVIP
V domain 2: NAGVTQTPKFRILKIGQSMTLQCAQDMNHNYMYWYRQDPGMGLKLIYYSVGAGITDKGEVPNGYNVSRSTTEDFPLRLELAAPSQTSVYFCASSYGPGGRNTIYFGEGSWLTVVE
B12: TCR-O (TCR, V domains shown)
V domain 1: KQEVTQIPAALSVPEGENLVLNCSFTDSAIYNLQWFRQDPGKGLTSLLLIQSSQREQTSGRLNASLDKSSGRSTLYIAASQPGDSATYLCAVTGMDSSYKLIFGSGTRLLVRP
V domain 2: DAEITQSPRHKITETGRQVTLACHQTWNHNNMFWYRQDLGHGLRLIHYSYGVHDTNKGEVSDGYSVSRSNTEDLPLTLESAASSQTSVYFCASSEGGSWGYTFGSGTRLTVVE

Target: T1, preproinsulin 73-90 peptide complexed …
Experiment: cell-based or functional assay
For B1, the “EC50 (nM) of CD69 upregulation, conventional CD4+ T cells + BLS-DRB1*04:01 cells, peptide titrated” value (shortened to “EC50 (nM) of CD69 upregulation”) was 11.2 nM. With B2 the “EC50 (nM) of CD69 upregulation” value was 1.89 nM. With B3 the “EC50 (nM) of CD69 upregulation” value was 0.93 nM. For B4, the “EC50 (nM) of CD69 upregulation” value was 0.62 nM. For B5, the “EC50 (nM) of CD69 upregulation” value was 14.9 nM. B6 was tested, and the “EC50 (nM) of CD69 upregulation” value was 8.03 nM. For B7, the “EC50 (nM) of CD69 upregulation” value was 47.7 nM. B8 was tested, and the “EC50 (nM) of CD69 upregulation” value was 19.1 nM. For B9, the “EC50 (nM) of CD69 upregulation” value was 498 nM. B10 was tested, and the “EC50 (nM) of CD69 upregulation” value was 244 nM. B11 was tested, and the “EC50 (nM) of CD69 upregulation” value was 28.2 nM. For B12, the “EC50 (nM) of CD69 upregulation” value was 6.34 nM.

Reference: patent US20250295772A1 (ABATA THERAPEUTICS, published 2025)
